{"source": "patent US20040170990A1", "about": "“Intracellular nucleic acid inhibitors of small guanine nucleotide exchange factors” (published 2004)", "key": {"[1]": {"molecular_target": "chimera ARF-1 protein fused at the carboxy terminus to the constant CH1 and CH2 domains of human IgG immunoglobulin (human) (UniProt P84077)", "sequence (P84077 whole entry, stated change not applied, the tested form may be a part)": "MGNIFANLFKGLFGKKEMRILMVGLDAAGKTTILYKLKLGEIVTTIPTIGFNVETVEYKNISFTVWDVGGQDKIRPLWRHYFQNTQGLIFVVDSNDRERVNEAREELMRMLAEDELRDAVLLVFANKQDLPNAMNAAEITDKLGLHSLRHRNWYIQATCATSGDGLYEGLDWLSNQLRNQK", "assay": "cell-based or functional assay"}, "[2]": {"molecular_target": "T1, cytohesin-1 (full-length) (UniProt Q15438)", "T1 sequence": "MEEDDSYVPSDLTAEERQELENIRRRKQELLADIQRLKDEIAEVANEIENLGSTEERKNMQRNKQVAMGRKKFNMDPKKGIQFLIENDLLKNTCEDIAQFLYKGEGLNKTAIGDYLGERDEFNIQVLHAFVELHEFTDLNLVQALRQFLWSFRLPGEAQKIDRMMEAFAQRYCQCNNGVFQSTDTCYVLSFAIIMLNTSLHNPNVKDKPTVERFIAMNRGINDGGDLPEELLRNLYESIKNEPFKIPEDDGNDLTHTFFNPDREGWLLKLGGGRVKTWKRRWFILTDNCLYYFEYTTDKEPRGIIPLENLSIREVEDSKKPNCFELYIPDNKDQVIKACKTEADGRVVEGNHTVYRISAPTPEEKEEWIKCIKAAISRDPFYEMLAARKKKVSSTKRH", "assay": "filter", "conditions": "non-selected library; 3 mM MgCl2, 37 C"}, "[3]": {"molecular_target": "T2, cytohesin-1 (full-length) (UniProt Q15438 Q15438:1-398)", "assay": "filter; 3 mM MgCl2, 37 C", "conditions": "tags: 6xHis (cytohesin-1-His6), E. coli, Ni-NTA", "method": "Filter binding experiments were carried out in order to test whether the selected aptamer sequences can also recognise native cytohesin-1 in solution. The interaction analyses are described in detail in the literature. (Jellinek et al., Proc. Natl. Acad. Sci. USA 90 (1993), 11227-11231; Jellinek et al., Biochemistry 33 (1994), 10450-10456).\nIncreasing concentrations of cytohesin-1-His6 (0.1 nM to 500 nM) were incubated with the aptamers according to the invention (1.0 nM) radioactively labelled with ³²P at the 5′ end for 1 h at 37° C. in selection buffer. The RNA/cytohesin-1-His6 complexes were then filtered over nitrocellulose acetate mixed membranes (HAWP 0.45 μm, Millipore). The filter was then rinsed with 5 ml of washing buffer (3 mM MgCl₂, 137 mM NaCl, 2.7 mM KCl, 4.3 mM Na₂HPO₄.7H₂O, 1.4 mM KH₂PO₄). Before the experiment the filters were pretreated for 10 minutes with 40 mM 6-aminocaproic acid and 20% ethanol. Radioactive RNA retained on the filters was quantified by analysis using a phosphor imager (Storm 860, Amersham). The dissociation constant (Kd) was determined as described by Jellinek et al. (Jellinek et al., Proc. Natl. Acad. Sci. USA 90 (1993), 11227-11231). […] Of the analysed sequences the clone M69 bound cytohesin-1-His6 with a dissociation constant of 16 nM (see Table 2). […]"}, "[4]": {"molecular_target": "T3, Gea2 Sec7 domain (Gea2-Sec7, G2-Sec7) (UniProt P39993 P39993:570-714)", "T3 chain": "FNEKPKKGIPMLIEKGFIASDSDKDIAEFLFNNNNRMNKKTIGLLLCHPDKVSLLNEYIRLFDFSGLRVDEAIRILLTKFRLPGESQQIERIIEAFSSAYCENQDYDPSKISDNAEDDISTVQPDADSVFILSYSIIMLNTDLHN", "assay": "filter; no measurable interaction", "conditions": "tags: 6xHis, provided by Cathy Jackson", "method": "(§1) Natl. Acad. Sci. USA 90 (1993), 11227-11231). […] Of the analysed sequences the clone M69 bound cytohesin-1-His6 with a dissociation constant of 16 nM (see Table 2). As controls the same binding experiments were carried out with E. coli lysates which were treated similarly to the cytohesin-1 expressed in E. coli.\n(§2) In the next step the binding site of the aptamer M69 on cytohesin-1 was delimited in more detail. For this purpose filter binding studies were carried out using subdomain constructs of cytohesin-1. The PH domain and the Sec7 domain of cytohesin-1 were overexpressed as 6×His-Tag proteins (PH-His6 and C1-Sec7-His6) in E. coli and purified as described for cytohesin-1-His6. The synthetic polybasic C-peptide was obtained from the company TopLab (Munich). The Sec7 domain of the large Brefeldin A-sensitive ARF-GEF's Gea2 (Gea2-Sec7) was made available as 6×His-Tag protein by Cathy Jackson (Departement de Biologie Cellulaire et Moleculaire, CEA/Saclay, France). […] On the other hand, no interaction with the PH domain or the Sec7 domain of Gea2 could be detected (see Table 2). […] The aptamer M5 on the other hand recognises both the Sec7 domain of cytohesin-1 and also of Gea2 with approximately the same affinity. The PH domain of cytohesin-1 is recognised an order of magnitude less well. […]"}, "[5]": {"molecular_target": "T4, cytohesin-1 PH domain (C1-PH) (UniProt Q15438 Q15438:260-377)", "T4 chain": "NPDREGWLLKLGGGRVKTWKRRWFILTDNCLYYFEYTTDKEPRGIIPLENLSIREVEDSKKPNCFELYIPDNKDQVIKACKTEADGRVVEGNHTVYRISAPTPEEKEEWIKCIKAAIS", "assay": "filter; no measurable interaction", "conditions": "tags: 6xHis, E. coli", "method": "as §1, §2"}, "[6]": {"molecular_target": "T2, cytohesin-1 (full-length)", "assay": "filter; 3 mM MgCl2, 37 C", "conditions": "tags: 6xHis (cytohesin-1-His6), E. coli, Ni-NTA", "method": "as §1\n(§3) In the next step the binding site of the aptamer M69 on cytohesin-1 was delimited in more detail. For this purpose filter binding studies were carried out using subdomain constructs of cytohesin-1. The PH domain and the Sec7 domain of cytohesin-1 were overexpressed as 6×His-Tag proteins (PH-His6 and C1-Sec7-His6) in E. coli and purified as described for cytohesin-1-His6. The synthetic polybasic C-peptide was obtained from the company TopLab (Munich). The Sec7 domain of the large Brefeldin A-sensitive ARF-GEF's Gea2 (Gea2-Sec7) was made available as 6×His-Tag protein by Cathy Jackson (Departement de Biologie Cellulaire et Moleculaire, CEA/Saclay, France). […] On the other hand, no interaction with the PH domain or the Sec7 domain of Gea2 could be detected (see Table 2). […] The aptamer M5 on the other hand recognises both the Sec7 domain of cytohesin-1 and also of Gea2 with approximately the same affinity. The PH domain of cytohesin-1 is recognised an order of magnitude less well. The aptamer M56 however binds best to the full-length protein cytohesin-1 and barely to the Sec7 domain of Gea2. Since both the Sec7 domain and also the PH domain of cytohesin-1 are bound with somewhat reduced affinities compared with the full-length protein, the aptamer appears to recognise a binding site on cytosin-1 which is composed of both domains.", "remark": "listed apart in the source"}, "[7]": {"molecular_target": "T5, cytohesin-1 Sec7 domain (C1-Sec7) (UniProt Q15438 Q15438:73-202)", "T5 chain": "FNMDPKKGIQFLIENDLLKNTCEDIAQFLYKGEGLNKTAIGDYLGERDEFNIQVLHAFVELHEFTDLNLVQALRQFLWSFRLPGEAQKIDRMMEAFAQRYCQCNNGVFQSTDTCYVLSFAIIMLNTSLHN", "assay": "filter; 3 mM MgCl2, 37 C", "conditions": "tags: 6xHis, E. coli", "method": "as §1, §3"}, "[8]": {"molecular_target": "T3, Gea2 Sec7 domain (Gea2-Sec7, G2-Sec7)", "assay": "filter; barely binds; 3 mM MgCl2, 37 C", "conditions": "tags: 6xHis, provided by Cathy Jackson; label: 5'-32P", "method": "as §1, with “The dissociation constant (Kd) was determined as described by Jellinek et al. (Jellinek et al., Proc. Natl.” for “Natl.”\nas §2"}, "[9]": {"molecular_target": "T2, cytohesin-1 (full-length)", "assay": "filter; 3 mM MgCl2, PBS-type buffer pH 7.3, 37 C", "conditions": "tags: 6xHis (cytohesin-1-His6), E. coli, Ni-NTA; label: 5'-32P", "method": "Increasing concentrations of cytohesin-1-His6 (0.1 nM to 500 nM) were incubated with the aptamers according to the invention (1.0 nM) radioactively labelled with ³²P at the 5′ end for 1 h at 37° C. in selection buffer. The RNA/cytohesin-1-His6 complexes were then filtered over nitrocellulose acetate mixed membranes (HAWP 0.45 μm, Millipore). The filter was then rinsed with 5 ml of washing buffer (3 mM MgCl₂, 137 mM NaCl, 2.7 mM KCl, 4.3 mM Na₂HPO₄.7H₂O, 1.4 mM KH₂PO₄). Before the experiment the filters were pretreated for 10 minutes with 40 mM 6-aminocaproic acid and 20% ethanol. Radioactive RNA retained on the filters was quantified by analysis using a phosphor imager (Storm 860, Amersham). The dissociation constant (Kd) was determined as described by Jellinek et al. (Jellinek et al., Proc. Natl. Acad. Sci. USA 90 (1993), 11227-11231). […] Of the analysed sequences the clone M69 bound cytohesin-1-His6 with a dissociation constant of 16 nM (see Table 2). As controls the same binding experiments were carried out with E. coli lysates which were treated similarly to the cytohesin-1 expressed in E. coli."}, "[10]": {"molecular_target": "T4, cytohesin-1 PH domain (C1-PH)", "assay": "filter; 3 mM MgCl2, 37 C", "conditions": "tags: 6xHis, E. coli; label: 5'-32P", "method": "as §1, §3"}, "[11]": {"molecular_target": "T2, cytohesin-1 (full-length)", "assay": "non-binding negative control", "conditions": "tags: 6xHis (cytohesin-1-His6), E. coli, Ni-NTA"}, "[12]": {"molecular_target": "T3, Gea2 Sec7 domain (Gea2-Sec7, G2-Sec7)", "assay": "filter; 3 mM MgCl2, 37 C", "conditions": "tags: 6xHis, provided by Cathy Jackson; label: 5'-32P", "method": "as §1, §3"}}, "data": [{"molecule": "cytohesin-1 (full-length protein) (from UniProt Q15438 1-398) (enzyme)", "values": [{"measurement": "binding of [gamma-35S]-GTP to ARF-1 (GDP/GTP exchange assay)", "setting": "[1]", "result": 10, "unit": "fold"}]}, {"molecule": "CUAUAGGGAGAGACAAGCUUGGGUCNNNNNNNNNNNNNNNNNNNNNNNNNNNNNNNNNNNNNNNNAGAAGAGAAAGAGAAGUUAAUUAAGGAUCCUCAG [non-selected N40 RNA library]", "values": [{"measurement": "Kd", "setting": "[2]", "result": "> 4000", "unit": "nM"}]}, {"molecule": "M3 (ssRNA) RNA: GGGAGAGACAAGCUUGGGUCAGGGAGGGUAGGGAUUUGGUUGUCCCAUGUUCGCAGCCGUAGAAGAGAAAGAGAAGUUAAUUAAGGAUCCUCAG", "values": [{"measurement": "binding result", "setting": "[3]", "result": "binds"}]}, {"molecule": "M69 (ssRNA) RNA: GGGAGAGACAAGCUUGGGUCUAUUAUGCCUUUAGCUAGCGCAUUCUGUGGGGUGGGUGGAAGAAGAGAAAGAGAAGUUAAUUAAGGAUCCUCAG", "values": [{"measurement": "binding result", "setting": "[4]", "result": "no binding"}, {"measurement": "binding result", "setting": "[5]", "result": "no binding"}, {"measurement": "Kd", "setting": "[6]", "result": 16, "unit": "nM"}, {"measurement": "Kd", "setting": "[7]", "result": 16, "unit": "nM"}]}, {"molecule": "M56 (ssRNA) RNA: GGGAGAGACAAGCUUGGGUCUGUUGUUGGACCAGUGUUAUUUUACGCGAUUGUGCGGUUGUGAAGAGAAAGAGAAGUUAAUUAAGGAUCCUCAG", "values": [{"measurement": "Kd", "setting": "[8]", "result": "> 1000", "unit": "nM"}, {"measurement": "Kd", "setting": "[9]", "result": 5, "unit": "nM"}, {"measurement": "Kd", "setting": "[10]", "result": 150, "unit": "nM"}, {"measurement": "Kd", "setting": "[7]; label: 5'-32P", "result": 280, "unit": "nM"}]}, {"molecule": "ML1 (ssRNA) RNA: GGGAGAGACAAGCUUGGGUCGUGUCUGUGUAGAGGACAGGGCGAGAGUCUGAUUGUCUGCAGAAGAGAAAGAGAAGUUAAUUAAGGAUCCUCAG", "values": [{"measurement": "binding result", "setting": "[11]", "result": "no binding"}]}, {"molecule": "M41 (ssRNA) RNA: GGGAGAGACAAGCUUGGGUCGUCAUCCGUGUUUUGUCAUGUUUUGAUGGGGUUUGGGGUGUGAUAAGAGAAAGAGAAGUUAAUUAAGGAUCCUCAG", "values": [{"measurement": "binding result", "setting": "[3]", "result": "binds"}]}, {"molecule": "M5 (ssRNA) RNA: GGGAGAGACAAGCUUGGGUCGGGUUCGCUAAGUUGGUCUACCCCUCUCGAAUAUCCGUUAAGAAGAGAAAGAGAAGUUAAUUAAGGAUCCUCAG", "values": [{"measurement": "Kd", "setting": "[12]", "result": 48, "unit": "nM"}, {"measurement": "Kd", "setting": "[6]; label: 5'-32P", "result": 40, "unit": "nM"}, {"measurement": "Kd", "setting": "[10]", "result": 480, "unit": "nM"}, {"measurement": "Kd", "setting": "[7]; label: 5'-32P", "result": 36, "unit": "nM"}]}]}
